From article doi:10.1101/2023.06.05.543739
One block for each substance: values may come before it.

Experiments:
Assay in all cases: ITC
[1] = biological target: PER2 1132-1252 (UniProt O54943)
[2] = biological target: hRbBP5 (Isoform 2) (human)
[3] = biological target: PER1 1013-1291 (UniProt O35973)
Sequence of UniProt O35973 (O35973 1013-1291): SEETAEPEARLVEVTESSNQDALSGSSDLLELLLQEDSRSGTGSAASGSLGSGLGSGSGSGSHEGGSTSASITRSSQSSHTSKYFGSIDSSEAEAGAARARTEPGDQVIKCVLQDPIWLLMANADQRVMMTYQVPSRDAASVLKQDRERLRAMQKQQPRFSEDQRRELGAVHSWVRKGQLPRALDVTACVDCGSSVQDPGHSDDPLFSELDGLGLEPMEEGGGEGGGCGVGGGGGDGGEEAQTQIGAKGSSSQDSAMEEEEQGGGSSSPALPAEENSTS

Sequence of UniProt O54943 (O54943 1132-1252): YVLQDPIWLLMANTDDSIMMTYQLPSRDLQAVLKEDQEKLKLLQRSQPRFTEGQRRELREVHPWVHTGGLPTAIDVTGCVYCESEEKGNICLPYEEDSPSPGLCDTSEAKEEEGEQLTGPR

- Kd [1]: 50 µM
Substance: WDR5 23-334 (from UniProt P61964 23-334) (domain or fragment; other documents disagree on this pair)

- Kd [2]: 71 µM
Substance: WDR5 23-334 N225A (from UniProt P61964 23-334) (domain or fragment)

- Kd [3]: 7 µM
Substance: WDR5 23-334 N225A (from UniProt P61964 23-334) (domain or fragment; other documents disagree on this pair)
